Test results: paper PMC7393995

Molecular target: CD162 (P-selectin glycoprotein ligand-1), mouse, on MLL-AF9 AML blasts (mouse (endogenous in murine MLL-AF9 AML blasts)) (UniProt Q62170)
Assay: flow cytometry on cells; E-selectin–IgM supernatant precomplexed with AF647 anti-human IgM F(ab)2, added to KIT+-enriched BM cells from leukemic mice (WT or Selplg-/- MLL-AF9 AML), 30 min on ice; gated on GFP+ KIT+ blasts; control: empty-vector IgM

Chain of UniProt Q62170 (Q62170 42-397): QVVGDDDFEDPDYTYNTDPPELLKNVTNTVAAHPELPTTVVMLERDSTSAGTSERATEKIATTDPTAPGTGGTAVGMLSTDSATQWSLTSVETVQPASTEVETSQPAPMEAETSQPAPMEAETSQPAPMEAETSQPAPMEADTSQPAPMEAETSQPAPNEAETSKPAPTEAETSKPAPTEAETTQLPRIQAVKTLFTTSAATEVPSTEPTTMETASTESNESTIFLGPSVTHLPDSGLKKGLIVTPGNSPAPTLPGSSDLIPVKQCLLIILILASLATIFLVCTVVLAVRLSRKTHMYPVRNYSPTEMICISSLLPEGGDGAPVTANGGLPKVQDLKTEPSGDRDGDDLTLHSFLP

- percent of gated AML blasts that bound E-selectin–IgM: 65%
Substance: recombinant E-selectin–human-IgM fusion protein (from UniProt P16581 22-610)
